This is an account of results in the Immune Epitope Database (IEDB).

By Kd is commonly meant the concentration at which binding is half-saturated.

Test [1] addresses HLA-A*30:02. Briefly: IEDB peptide-MHC binding, purified MHC/competitive/radioactivity; filed as Kd, often an IC50 or EC50 that approximates it; ≥ and ≤ were set here for values at or beyond the usual limits of such assays.
Test [2] concerns the target HLA-A*29:02. The description is as above.
Test [3] has as its target HLA-A*01:01. The test is described as above.
Test [4] addresses HLA-A*23:01. The test is described as above.
In test [5] the target is HLA-A*26:01. The test is described as above.
The target in test [6] is HLA-A*24:02. Described as above.
The target in test [7] is HLA-A*03:01. Kind of test: IEDB peptide-MHC binding, purified MHC/direct/fluorescence; filed as Kd, often an IC50 or EC50 that approximates it; ≥ and ≤ were set here for values at or beyond the usual limits of such assays.
In test [8] the target is HLA-A*01:01. The description is as above.
Test [9] deals with HLA-B*07:02. Described as above. The settings on record: source organism: Homo sapiens.
In test [10] the target is HLA-B*58:01. The test is described as above.
The target of test [11] is HLA-A*11:01. The test is described as above.
For test [12], the target named is HLA-B*15:01. The description is as above. The conditions noted are these: source organism: SARS-CoV1.
The target in test [13] is HLA-A*69:01. The test is described as above. The conditions noted are these: source organism: Homo sapiens.
Test [14] deals with HLA-B*44:02. Briefly: IEDB peptide-MHC binding, purified MHC/competitive/radioactivity; filed as Kd, often an IC50 or EC50 that approximates it; ≥ and ≤ were set here for values at or beyond the usual limits of such assays.
The target in test [15] is HLA-B*44:03. The description is as above.
Test [16] concerns the target HLA-B*40:01. The test is described as above.
Test [17] has as its target HLA-B*27:05. Kind of test: IEDB peptide-MHC binding, purified MHC/direct/fluorescence; filed as Kd, often an IC50 or EC50 that approximates it; ≥ and ≤ were set here for values at or beyond the usual limits of such assays. The conditions noted are these: source organism: SARS-CoV1.
The mark [18] stands for this setting: source organism: SARS coronavirus Tor2.
Setting [19] is: source organism: Mammarenavirus whitewaterense.
Where [20] appears, read: source organism: Lassa virus Josiah.
Setting [21] is: source organism: Mammarenavirus brazilense.
The mark [22] stands for this setting: source organism: Mammarenavirus guanaritoense.
The mark [23] stands for this setting: source organism: Mammarenavirus choriomeningitidis.
Setting [24] is: source organism: Mammarenavirus lassaense.
[25] abbreviates: source organism: Dengue virus 4 Philippines/H241/1956.
Setting [26] is: source organism: Dengue virus 2 Jamaica/1409/1983.

As for HFAIGLALYY, the Kd in test [1] (setting [18]) is 236 nM; in test [2] (setting [18]) it was 0.233 nM; in test [3] (setting [18]), 2320 nM; in test [4] (setting [18]) it was ≥ 60900 nM; in [5] (setting [18]), 6.53 nM; in test [6] (setting [18]), ≥ 70300 nM.

CKDGHVETFY: the Kd in test [1] (setting [18]) is 506 nM; in test [2] (setting [18]), 171 nM; in test [3] (setting [18]) it was 8080 nM; in [4] (setting [18]), ≥ 70000 nM; in [5] (setting [18]) it was 3870 nM; in test [6] (setting [18]), ≥ 70300 nM.

For the sequence AYTSSDDEI, the Kd in test [2] (setting [19]) is 1590 nM; in test [4] (setting [19]), 1580 nM; in [6] (setting [19]), 4870 nM.

As to SDAHKKNLY, the Kd in test [1] (setting [20]) is 1640 nM; in [2] (setting [20]), ≥ 69700 nM; in test [3] (setting [20]) it was 1120 nM; in test [4] (setting [20]), ≥ 77700 nM; in test [5] (setting [20]), ≥ 77900 nM; in test [6] (setting [20]), ≥ 77500 nM.

Turning to DNAFNCTFEY, the Kd was 382 nM in test [1] (setting [18]); 14.4 nM in test [2] (setting [18]); 4250 nM in test [3] (setting [18]); ≥ 70000 nM in test [4] (setting [18]); 132 nM in [5] (setting [18]); ≥ 70300 nM in test [6] (setting [18]).

Regarding MFKTKGRYNL, the results for the Kd in test [2] (setting [21]), in test [4] (setting [21]) and in test [6] (setting [21]) were 68.9 nM, 2070 nM and 7170 nM, respectively.

For KYILIQAGF, the Kd in test [2] (setting [22]) amounted to 3740 nM; in test [4] (setting [22]), 1.77 nM; in [6] (setting [22]) it was 11.9 nM.

Take ILGPPGSVY: the equilibrium dissociation constant (Kd) in test [7] (source organism: Homo sapiens) was 852 nM; in test [8] (source organism: Homo sapiens), 6420 nM; in test [9], ≥ 33100 nM; in [10] (source organism: Homo sapiens), 326 nM; in [11] (source organism: Homo sapiens) it was 1660 nM.

For MYIFFASFYY, the Kd in test [1] (setting [18]) was 9.07 nM; in test [2] (setting [18]) it was 0.449 nM; in [3] (setting [18]) it was 6700 nM; in [4] (setting [18]), 722 nM; in [5] (setting [18]), 575 nM; in test [6] (setting [18]), 6650 nM.

Take KSFEIDKGIY: the Kd in [1] (setting [18]) was 4.75 nM; in [2] (setting [18]), 984 nM; in test [3] (setting [18]), 780 nM; in [4] (setting [18]) it was ≥ 70000 nM; in test [5] (setting [18]), 5510 nM; in [6] (setting [18]), ≥ 70300 nM.

Turning to LTDDMIAAY, the Kd in [12] is 636 nM; in test [7] (source organism: SARS-CoV1) it was 19300 nM; in test [8] (source organism: SARS-CoV1) it was 7 nM; in test [10] (source organism: SARS-CoV1), 6940 nM; in test [11] (source organism: SARS-CoV1), 4050 nM; in test [1] (setting [18]), 326 nM. Besides, the Kd in test [2] (setting [18]) is 529 nM; in test [4] (setting [18]) it was ≥ 77800 nM; in test [5] (setting [18]) it was 1800 nM; in test [6] (setting [18]) it was ≥ 77600 nM.

In the case of WCSQTDYQYL, the Kd in [1] (setting [23]) was 10600 nM; in test [2] (setting [23]) it was 9280 nM; in test [3] (setting [23]) it was 13100 nM; in test [4] (setting [23]) it was 10800 nM; in [5] (setting [23]), ≥ 69700 nM; in test [6] (setting [23]), 15000 nM.

As for EPEPHILLF, the values for the Kd in test [9] and in test [13] were 5470 nM and 7050 nM, respectively.

Turning to RYNTRGNTY, the Kd in [1] (setting [18]) is 31.3 nM; in test [2] (setting [18]), 1770 nM; in test [3] (setting [18]), 13900 nM; in test [4] (setting [18]), 8930 nM; in test [5] (setting [18]), ≥ 52200 nM; in test [6] (setting [18]), 1790 nM.

With LWLLWPVTL, the Kd in test [1] (setting [18]) was 5030 nM; in test [2] (setting [18]), 1840 nM; in test [3] (setting [18]), ≥ 78100 nM; in [4] (setting [18]), 7.42 nM; in [5] (setting [18]) it was ≥ 77900 nM.

Regarding LTNDNTSRY, the Kd is 8.9 nM in test [1] (setting [18]); 31.6 nM in [2] (setting [18]); 1.59 nM in [3] (setting [18]); ≥ 77800 nM in test [4] (setting [18]); 6.48 nM in test [5] (setting [18]); ≥ 77600 nM in [6] (setting [18]).

For the sequence FYFTNDVSFL, the Kd in test [1] (setting [18]) was ≥ 34200 nM; in test [2] (setting [18]), 384 nM; in test [3] (setting [18]), 2000 nM; in test [4] (setting [18]), 59.2 nM; in test [5] (setting [18]) it was 9340 nM; in test [6] (setting [18]), 47.5 nM.

For the sequence AGFPAGLTY, the Kd in test [1] (setting [24]) was 287 nM; in [2] (setting [24]), 68.9 nM; in test [3] (setting [24]) it was ≥ 78100 nM; in test [4] (setting [24]), ≥ 77700 nM; in test [5] (setting [24]), ≥ 77900 nM; in test [6] (setting [24]), ≥ 77500 nM.

In the case of AEYTNSVTNI, the figures for the Kd in [14] (setting [25]), in test [15] (setting [25]) and in test [16] (setting [25]) were 280 nM, 51.6 nM and 158 nM, respectively.

For VFQSATKII, the Kd was 199 nM in test [1] (setting [18]); 0.0425 nM in test [2] (setting [18]); ≥ 59200 nM in [3] (setting [18]); 0.162 nM in test [4] (setting [18]); ≥ 43600 nM in test [5] (setting [18]); 0.211 nM in test [6] (setting [18]).

As for VKMPTHRHI, the Kd in test [1] (setting [23]) was ≥ 76900 nM; in [2] (setting [23]) it was ≥ 78900 nM; in [3] (setting [23]), ≥ 78100 nM; in test [4] (setting [23]), ≥ 77700 nM; in test [5] (setting [23]), ≥ 77900 nM; in [6] (setting [23]), ≥ 77500 nM.

FSGALDTTSY: the Kd in [1] (setting [18]) is 451 nM; in test [2] (setting [18]), 678 nM; in [3] (setting [18]), 1310 nM; in test [4] (setting [18]), ≥ 70000 nM; in test [5] (setting [18]) it was 9150 nM; in [6] (setting [18]), ≥ 70300 nM.

As to VEMGEAAGI, the Kd in test [14] (setting [26]) came out at 26.5 nM; in [15] (setting [26]), 206 nM; in test [16] (setting [26]), 268 nM.

In the case of VWKSGILQLF, the values for the Kd in test [2] (setting [22]), in [4] (setting [22]) and in [6] (setting [22]) were 2560 nM, 16.5 nM and 62.6 nM, respectively.

On to RVDFCGKGY, for which the Kd in test [12] was found to be 1090 nM; in test [7] (source organism: SARS-CoV1), 1890 nM; in test [8] (source organism: SARS-CoV1), 1000 nM; in [17], 3890 nM; in test [11] (source organism: SARS-CoV1), 7730 nM; in test [1] (setting [18]), 20 nM. In addition, the Kd was 9230 nM in test [2] (setting [18]), ≥ 77800 nM in test [4] (setting [18]), 7680 nM in [5] (setting [18]) and ≥ 77600 nM in test [6] (setting [18]).

For the sequence RPAKSMDSL, the Kd in [9] stood at 146 nM; in test [10] (source organism: Homo sapiens), 18800 nM; in [13], 5060 nM.

For the sequence WCSQTDYQY, the Kd in test [1] (setting [23]) was 342 nM; in test [2] (setting [23]) it was 258 nM; in [3] (setting [23]) it was 1160 nM; in test [4] (setting [23]), ≥ 77700 nM; in test [5] (setting [23]), ≥ 77900 nM; in test [6] (setting [23]) it was ≥ 77500 nM.

Turning to LLEKCDLQNY, the Kd is 7030 nM in [1] (setting [18]); 3260 nM in test [2] (setting [18]); 70.7 nM in [3] (setting [18]); ≥ 70000 nM in test [4] (setting [18]); ≥ 82800 nM in [5] (setting [18]); ≥ 70300 nM in test [6] (setting [18]).

For FDEISMATNY, the Kd was 4100 nM in test [1] (setting [18]); 18.4 nM in [2] (setting [18]); 13000 nM in test [3] (setting [18]); ≥ 70000 nM in test [4] (setting [18]); 699 nM in [5] (setting [18]); ≥ 70300 nM in [6] (setting [18]).

Take YQPESQKFI: the Kd in test [2] (setting [19]) came to 3390 nM; in test [4] (setting [19]) it was 7210 nM; in test [6] (setting [19]), 8480 nM.

Take RYNLPTMCDI: the Kd in test [1] (setting [18]) is 90 nM; in test [2] (setting [18]) it was 5260 nM; in test [3] (setting [18]) it was ≥ 70400 nM; in test [4] (setting [18]), 180 nM; in test [5] (setting [18]) it was ≥ 69700 nM; in [6] (setting [18]) it was 601 nM.
